Source: paper doi:10.1101/2023.05.10.540161 (bioRxiv, 2023)

Target: the molecule itself
Test: crystal structure; His6-CENP-E 2452-2598 at 11 mg/ml, crystallized in 0.2 M potassium citrate tribasic monohydrate, 20% w/v PEG 3350 pH 8.3, room temperature; a CENP-E dimer in the asymmetric unit

B1: His6-CENP-E_(2452-2598) (domain or fragment, human, UniProt Q02224-1 2452-2598, looked up)
chain: PYKEEIEDLKMKLVKIDLEKMKNAKEFEKEISATKATVEYQKEVIRLLRENLRRSQQAQDTSVISEHTDPQPSNKPLTCGGGSGIVQNTKALILKSEHIRLEKEISKLKQQNEQLIKQKNELLSNNQHLSNEVKTWKERTLKREAHK
notes: CENP-E (kinesin-7), human, residues 2452-2598, from CENP-E transcript variant 1 (NM_001813.2); in the crystal only K2454 to S2506 were seen (likely C-terminal degradation during crystallization); Cloned into pET3aTr; also called minimal corona targeting domain; corona-targeting domain of CENP-E; source: E. coli BL21, purified as previously described (Legal et al., 2020)
- stoichiometry N: 2
